Data taken from paper PMC8528861 (2021).
Where no end group is shown, it is not given here. [ ]: non-standard residue; d: D form. pY = N[C@@H](Cc1ccc(OP(=O)(O)O)cc1)C(=O)O

Key:
Test in all cases: SPR
[1] = target: M. musculus LNK SH2 domain R387H (mouse, UniProt O09039 325-438, R387H)
[2] = target: M. musculus LNK SH2 domain (residues 324–446), wild type (mouse, UniProt O09039 324-446)
[3] = target: M. musculus LNK SH2 domain R387C (mouse, UniProt O09039 325-438, R387C)
[4] = target: mouse SH2B SH2 domain (mouse, UniProt Q91ZM2 527-625)

M. musculus LNK SH2 domain R387C, sequence (O09039 325-438 R387C): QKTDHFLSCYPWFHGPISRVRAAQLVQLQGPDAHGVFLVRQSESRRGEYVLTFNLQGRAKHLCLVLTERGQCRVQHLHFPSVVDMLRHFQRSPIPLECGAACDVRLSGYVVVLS
M. musculus LNK SH2 domain (residues 324–446), wild type, sequence (O09039 324-446): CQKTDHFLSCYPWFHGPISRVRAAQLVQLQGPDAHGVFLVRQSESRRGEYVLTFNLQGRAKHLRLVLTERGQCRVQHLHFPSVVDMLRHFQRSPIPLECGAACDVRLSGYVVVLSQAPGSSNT
M. musculus LNK SH2 domain R387H, sequence (O09039 325-438 R387H): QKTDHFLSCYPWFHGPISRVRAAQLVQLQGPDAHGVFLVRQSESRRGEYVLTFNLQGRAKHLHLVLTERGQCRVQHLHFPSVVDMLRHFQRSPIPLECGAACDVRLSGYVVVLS

B1: biotinylated JAK2 pY813 peptide (peptide)
chain: FTPD[pY]ELLTEND
modifications: also: biotin, site not given here
Which Kd [1] does the source give for B1 here?
The Kd was 242 nM.

And the Kd [2]?
The Kd was 27 nM.

What about the Kd [3] of the same binder?
Its Kd is 76 nM.

And the Kd [4]?
The Kd was 108 nM.
